Source: US20060183125A1

Tests used:
[1] = target: human TREM-1-Ligand (human); experiment: flow cytometry, double staining with anti CD15, CD15 high neutrophils of a septic patient
[2] = target: human TREM-1-Ligand (human); experiment: flow cytometry, double staining with anti CD15, CD15 low neutrophils of a septic patient
[3] = target: human TREM-1-Ligand (human); experiment: flow cytometry on peripheral neutrophils of a sepsis patient, 0.2 µg huTREM-1/IgM
[4] = target: human TREM-1-Ligand (human); experiment: flow cytometry on peripheral neutrophils of a sepsis patient, 1 µg huTREM-1/IgM
[5] = target: murine TREM-1-Ligand (mouse); experiment: flow cytometry, low Ly-6G peritoneal cell subset, septic (CLP) mouse
[6] = target: murine TREM-1-Ligand (mouse); experiment: flow cytometry, peritoneal cells of a representative septic (CLP) mouse
[7] = target: murine TREM-1-Ligand (mouse); experiment: flow cytometry, high Ly-6G peritoneal cell subset, septic (CLP) mouse
[8] = target: murine TREM-1-Ligand (mouse); experiment: flow cytometry, tetramer staining of blood cells of septic mice 6 hours after CLP induction
[9] = target: murine TREM-1-Ligand (mouse); experiment: flow cytometry, low Ly-6G peritoneal cell subset, control mouse
[10] = target: murine TREM-1-Ligand (mouse); experiment: flow cytometry, peritoneal cells of a representative control mouse

Substance | percentage of TREM-1-Ligand expressing cells [1] | percentage of TREM-1-Ligand expressing cells [2] | percent of cells stained positive [3] | percent of cells stained positive [4] | frequency of double positive population [5] | frequency of Ly-6G positive, murine TREM-1-Receptor/IgG positive cells [6] | frequency of double positive population [7] | percent of Ly-6G positive cells positive [8] | frequency of double positive population [9] | frequency of Ly-6G positive, murine TREM-1-Receptor/IgG positive cells [10]
human TREM-1-Receptor/human IgM fusion protein (from UniProt Q9NP99 21-200) | 2% | 38% | 45% | 80% | – | – | – | – | – | –
murine TREM-1-Receptor/human IgG fusion protein (from UniProt Q9JKE2 21-202) (Fc fusion) | – | – | – | – | 77% | 35% | 33% | 2% | 40% | 8.8%
